In the Human Domainome abundance scans (Beltran et al. 2025):

B1: Segment polarity protein dishevelled homolog DVL-3, residues 2 to 81; numbered along this chain, Q92997 (parent)
chain: GETKIIYHLDGQETPYLVKLPLPAERVTLADFKGVLQRPSYKFFFKSMDDDFGVVKEEISDDNAKLPCFNGRVVSWLVSA
B2: Nucleosome-remodeling factor subunit BPTF, residues 2862 to 2918; numbered along this chain, Q12830 (parent)
chain: TKKDTKLYCICKTPYDESKFYIGCDRCQNWYHGRCVGILQSEAELIDEYVCPQCQST

Variants of: B1
Assay: abundance fitness (aPCA) (normalised: wild type 0, dead -1); higher = more abundant; growth selection in yeast, the domain comes from the species named
Conditions: Homo sapiens

Abundance fitness, by site and new letter:
I5: V -0.265; K -1.16; Y -0.969; R -0.784; G -0.643; F -0.815; N -0.916; L -0.698; S -0.765; P -0.543; H -0.514; D -0.973; M -0.803; A -0.837; E -0.767; W -0.625; C -0.535; T -0.437
L9: Y -0.581; K -0.574; E -0.546; H -1.14; I 0.163; C -0.528; Q -0.825; M -0.283; S -0.366; N -0.888; F -0.575; P -0.695; A -0.518; R -0.704; V 0.167; D -0.535; G -0.622; T -0.767
D10: V -0.726; M -0.822; G -0.709; L -0.848; K -0.791; H -0.568; F -0.677; E -0.016; R -0.696; C -0.709; N -0.507; T -0.471; A -0.513; I -0.831; P 0.002; S -0.68; W -0.866
H8: W 0.027; G -0.668; C -1.19; S -0.617; L -0.542; K -0.548; V -0.494; E -1.06; A -0.772; F 0.23; R -0.326; M -0.455; I -0.681; Q -0.747; N -0.661; P -0.225; T -0.503; Y 0.19
Y7: C -0.663; V -0.37; H -0.78; S -0.884; D -0.947; N -0.636; P -0.806; A -0.882; L -0.735; G -0.833; E -0.608; I -0.74; R -0.811; Q -0.975; K -0.749; T -0.731; W -0.869
G1: L -0.132; M -0.074; W -0.222; Q -0.035; D -0.205; N -0.444; A -0.084; F 0.109; R -0.179; T -0.198; I -0.324; K 0.191; C -0.13; P 0.022; Y -0.124
E2: T -0.079; Q -0.194; D -0.516; R -0.579; Y -0.049; M -0.281; P -0.491; H -0.164; G -0.62; W -0.121; K -0.723; C -0.038; S -0.082; A -0.511; N 0.052; V -0.129; L -0.341
I6: H -0.076; Y 0.248; M -0.502; S -0.431; T -0.132; G -0.625; P -0.816; L -0.152; D -0.585; R -0.728; K -0.892; Q -0.28; C -0.467; E 0.153; N -0.451; F -0.015; V -0.135; A -0.578
G11: A -0.356; K -0.384; E -0.112; D 0.192; H -0.471; L -0.389; N 0.095; F -0.586; I -1.06; M -0.617; C -0.333
T3: M -0.683; F -0.452; D -0.448; C -0.59; K -0.635; S -0.633; H -0.831; R -0.665; L -0.727; G -0.853; E -0.638; I -0.962; N -0.822; A -0.684; P -0.509; Q -1.05

Variants of: B2
Assay: as above
Conditions: Homo sapiens

Abundance fitness: each site, then its substitutions
K12: Y -0.134; Q 0.006
